The source of these data is publication PMC12692541.

The series concerns HalTzlAAA homotrinucleopeptide (synthetic (designed)). Briefly: fluorescence anisotropy. Conditions: none (unmodified); TB (tris/borate) buffer, 25 °C, 20 min incubation; RNA refolded at 90 °C for 5 min; salt and pH not given in the material.

In general, Kd refers to the equilibrium constant for the complex coming apart.

With GCAGACUUUUAAUCUGC [ASLLys3], the dissociation constant (Kd) is 75.3 µM.
